{"source": "paper PMC9798253", "about": "(Protein Science : A Publication of the Protein Society, 2023)", "system": "GST-TRD (TRD domain of MECP2)", "experiment": "GST-pulldown of MBP-ADD", "assay_type": "binding", "settings": "1 μg each protein; 25 mM Tris/HCl pH 8, 200 mM KCl; 1 h, 6°C; SDS-PAGE"}
{"molecule": "D529A/D530A/D531A triple mutation: D529A/D530A/D531A triple mutant of the ADD domain (MBP‐ADD in pulldown, mVenus‐ADD in cells) (protein, left off: MBP, N-terminal, kept) RERLVYEVRQKCRNIEDICISCGSLNVTLEHPLFVGGMCQNCKNCFLECAYQYAAAGYQSYCTICCGGREVLMCGNNNCCRCFCVECVDLLVGPGAAQAAIKEDPWNCYMCGHKGTYGLLRRREDWPSRLQMFFANNHD", "values": [{"measurement": "pulldown of MBP-ADD by GST-TRD", "value": "reduced"}]}
